Assay results reported in publication PMC9949351, “Chromatin localization of nucleophosmin organizes ribosome biogenesis” (Molecular cell, 2022).

B1: Fkbp41 (natural protein, S. pombe, UniProt Q10175 1-362, looked up)
chain: MSKEETLYSVKVDQERVPLFDEDFYKGFRSELSVRFTMAALDPRAKSNDAVTVNVITRLEHPEEDGEESDEELFQEEKFTLCTLKKGSVYQQPIDIIFSPGEEVFFERVGGDIPVYLSGTCIITNIPEEEDSSDLENDFLYGADEFSSDEEEMDDISVTSSEEEEEENGARIEELNSDEEDAEQAEEEILEKPVPKDEVAEKHSKDKLKKEEKEKKTAVDVSDSVNGKKRKTEPAGEGEQTEKKSKSTKTYPKQVLEGNVTVQDKVKGDGPAAKRKKRVSMRYIGRLTNGKVFDKNITGKPFTFNLGLEEVIKGWDVGIVGMQVGGERTIHIPAAMAYGSKRLPGIPANSDLVFDVKLLAVN
notes: Fkbp41, S. pombe, SPAC27F1.06c; cloned into a pETDuet vector behind 6xHis-SUMO and an HRV-3C site; also called nucleophosmin-like protein Fkbp41; SPAC27F1.06c; source: E. coli Rosetta (DE3), purified (Ni Sepharose, tag removed, Q ion exchange, at times SEC); not shown: 6xHis, N-terminal, cleaved; SUMO, N-terminal, cleaved

Experiments:
[1] = target: the molecule itself; experiment: mass photometry + SEC; purified Fkbp39 and Fkbp41, oligomeric state; SEC on Superdex 200 Increase 10/300 GL
[2] = target: B1; experiment: pull-down; 'in vitro co-immunoprecipitation': 12 μg each of 6xHis-SUMO-Fkbp39 and Fkbp41, 45 min at 4 °C in 30 mM HEPES-Na pH 7.5-8, 150 mM NaCl, 20 mM imidazole; Ni Sepharose resin, imidazole elution, SDS-PAGE; settings: both partners purified

Binder | stoichiometry N [1] | binding result [2]
B1 | 2 | 
Fkbp39 (natural protein, S. pombe, UniProt O74191 1-361, looked up, Fkbp39, S. pombe, SPBC1347.02; cloned into a pETDuet vector behind 6xHis-SUMO and an HRV-3C site; also called nucleophosmin-like protein Fkbp39; SPBC1347.02; source: E. coli Rosetta, purified (Ni Sepharose, tag removed, SP ion exchange, at times SEC); not shown: 6xHis, N-terminal, cleaved; SUMO, N-terminal, cleaved) MSLPIAVYSLSVKGKDVPAVEESTDASIHLTMASIDAGEKSNKPTTLLVKVRPRIPVEDEDDEELDEQMQELLEESQREFVLCTLKPGSLYQQPLNLTITPGDEVFFSASGDATIHLSGNFLVDEEDEEEEESDEDYDLSPTEEDLVETVSGDEESEEESESEDNSASEEDELDSAPAKKAQVKKKRTKDESEQEEAASPKKNNTKKQKVEGTPVKEKKVAFAEKLEQGPTGPAAKKEKQQASSNAPSSPKTRTLKGGVVVTDVKTGSGASATNGKKVEMRYIGKLENGKVFDKNTKGKPFAFILGRGEVIRGWDVGVAGMQEGGERKITIPAPMAYGNQSIPGIPKNSTLVFEVKLVRVH | 5 | 
6xHis-SUMO-Fkbp39 (natural protein, S. pombe, UniProt O74191 1-361, looked up, Fkbp39, S. pombe, SPBC1347.02; pETDuet construct with 6xHis-SUMO and an HRV-3C site, tag not removed; source: E. coli Rosetta (Fkbp39 constructs), purified; used as 6xHis-SUMO-Fkbp39; not shown: 6xHis, N-terminal, kept; SUMO, N-terminal, kept) MSLPIAVYSLSVKGKDVPAVEESTDASIHLTMASIDAGEKSNKPTTLLVKVRPRIPVEDEDDEELDEQMQELLEESQREFVLCTLKPGSLYQQPLNLTITPGDEVFFSASGDATIHLSGNFLVDEEDEEEEESDEDYDLSPTEEDLVETVSGDEESEEESESEDNSASEEDELDSAPAKKAQVKKKRTKDESEQEEAASPKKNNTKKQKVEGTPVKEKKVAFAEKLEQGPTGPAAKKEKQQASSNAPSSPKTRTLKGGVVVTDVKTGSGASATNGKKVEMRYIGKLENGKVFDKNTKGKPFAFILGRGEVIRGWDVGVAGMQEGGERKITIPAPMAYGNQSIPGIPKNSTLVFEVKLVRVH |  | binds
